Laboratory results reported in the supplement of paper PMC9112550, “Optimization of the antimicrobial peptide Bac7 by deep mutational scanning” (BMC Biology, 2022).

tested on: Escherichia coli TOP10; assay: shrunken log2 fold change of peptide-encoding DNA abundance (4.5 h post-induction vs induction); higher = less antimicrobial activity (less host growth inhibition); settings: time post-induction: 4.5 h; library: site-saturation at positions 5, 18, 19, 20
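Further: peptides expressed intracellularly from a pBAD plasmid library in pooled LB shake-flask culture, induced with 0.3% L-arabinose, DNA abundance read by NGS, three biological replicates, DESeq2 with apeglm shrinkage.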

Sequence | shrunken log2 fold change
RRIRVRPPRLPRPRPRPKYGPRP | -0.141
RRIRVRPPRLPRPRPRPKYSPRP | -0.122
RRIRVRPPRLPRPRPRPLAFPRP | -0.221
RRIRVRPPRLPRPRPRPLAKPRP | -0.252
RRIRVRPPRLPRPRPRPLAYPRP | 0.0656
RRIRVRPPRLPRPRPRPLCCPRP | -0.0983
RRIRVRPPRLPRPRPRPLDRPRP | -0.117
RRIRVRPPRLPRPRPRPLEWPRP | -0.0248
RRIRVRPPRLPRPRPRPLEYPRP | 0.0331
RRIRVRPPRLPRPRPRPLHIPRP | -0.528
RRIRVRPPRLPRPRPRPLHVPRP | -0.311
RRIRVRPPRLPRPRPRPLIHPRP | -0.393
RRIRVRPPRLPRPRPRPLKCPRP | -0.412
RRIRVRPPRLPRPRPRPLMWPRP | 0.157
RRIRVRPPRLPRPRPRPLNCPRP | -0.257
RRIRVRPPRLPRPRPRPLPGPRP | 0.547
RRIRVRPPRLPRPRPRPLPRPRP | 0.642
RRIRVRPPRLPRPRPRPLQEPRP | 0.298
RRIRVRPPRLPRPRPRPLRNPRP | 0.408
RRIRVRPPRLPRPRPRPLTCPRP | -0.187
RRIRVRPPRLPRPRPRPLYPPRP | -0.586
RRIRVRPPRLPRPRPRPMAEPRP | 2.52
RRIRVRPPRLPRPRPRPMAGPRP | -0.00674
RRIRVRPPRLPRPRPRPMAHPRP | 0.00201
RRIRVRPPRLPRPRPRPMAIPRP | -0.11

Sequence | shrunken log2 fold change
RRIRVRPPRLPRPRPRPMCIPRP | -0.047
RRIRVRPPRLPRPRPRPMCPPRP | 0.0857
RRIRVRPPRLPRPRPRPMCVPRP | 0.103
RRIRVRPPRLPRPRPRPMDFPRP | -0.205
RRIRVRPPRLPRPRPRPMEMPRP | -0.0249
RRIRVRPPRLPRPRPRPMFPPRP | 0.086
RRIRVRPPRLPRPRPRPMISPRP | -0.237
RRIRVRPPRLPRPRPRPMKGPRP | -0.01
RRIRVRPPRLPRPRPRPMLIPRP | -0.0178
RRIRVRPPRLPRPRPRPMLMPRP | 0.00342
RRIRVRPPRLPRPRPRPMMCPRP | -0.00174
RRIRVRPPRLPRPRPRPMMSPRP | 0.00438
RRIRVRPPRLPRPRPRPMPDPRP | 0.00211
RRIRVRPPRLPRPRPRPMQAPRP | -0.0023
RRIRVRPPRLPRPRPRPMRIPRP | 0.218
RRIRVRPPRLPRPRPRPMRNPRP | -0.0233
RRIRVRPPRLPRPRPRPMSEPRP | 0.0558
RRIRVRPPRLPRPRPRPMTEPRP | 0.0198
RRIRVRPPRLPRPRPRPMTQPRP | 0.181
RRIRVRPPRLPRPRPRPMVTPRP | -0.043
RRIRVRPPRLPRPRPRPMWYPRP | -0.62
RRIRVRPPRLPRPRPRPMYFPRP | -0.569
RRIRVRPPRLPRPRPRPMYGPRP | -0.116
RRIRVRPPRLPRPRPRPMYNPRP | -0.315
RRIRVRPPRLPRPRPRPNALPRP | -0.379

Sequence | shrunken log2 fold change
RRIRVRPPRLPRPRPRPNAVPRP | -0.223
RRIRVRPPRLPRPRPRPNAYPRP | -0.572
RRIRVRPPRLPRPRPRPNCDPRP | -0.356
RRIRVRPPRLPRPRPRPNGFPRP | -0.0486
RRIRVRPPRLPRPRPRPNIHPRP | -0.556
RRIRVRPPRLPRPRPRPNKYPRP | -0.668
RRIRVRPPRLPRPRPRPNLMPRP | -0.153
RRIRVRPPRLPRPRPRPNLWPRP | -0.0401
RRIRVRPPRLPRPRPRPNMNPRP | -0.745
RRIRVRPPRLPRPRPRPNPNPRP | -0.108
RRIRVRPPRLPRPRPRPNQNPRP | -0.312
RRIRVRPPRLPRPRPRPNQYPRP | -0.864
RRIRVRPPRLPRPRPRPNSLPRP | 0.0679
RRIRVRPPRLPRPRPRPNTAPRP | -0.147
RRIRVRPPRLPRPRPRPPARPRP | 0.76
RRIRVRPPRLPRPRPRPPCEPRP | 0.229
RRIRVRPPRLPRPRPRPPCMPRP | -0.0452
RRIRVRPPRLPRPRPRPPCNPRP | -0.356
RRIRVRPPRLPRPRPRPPDCPRP | -0.0843
RRIRVRPPRLPRPRPRPPDMPRP | -0.239
RRIRVRPPRLPRPRPRPPEPPRP | 0.382
RRIRVRPPRLPRPRPRPPFAPRP | 0.583
RRIRVRPPRLPRPRPRPPFIPRP | -0.23
RRIRVRPPRLPRPRPRPPGDPRP | 0.12
RRIRVRPPRLPRPRPRPPHIPRP | 0.0567

Sequence | shrunken log2 fold change
RRIRVRPPRLPRPRPRPPKKPRP | 0.167
RRIRVRPPRLPRPRPRPPNFPRP | 0.0102
RRIRVRPPRLPRPRPRPPNIPRP | -0.475
RRIRVRPPRLPRPRPRPPNLPRP | 0.239
RRIRVRPPRLPRPRPRPPNSPRP | 0.12
RRIRVRPPRLPRPRPRPPPHPRP | 0.676
RRIRVRPPRLPRPRPRPPPSPRP | 0.897
RRIRVRPPRLPRPRPRPPQDPRP | 0.27
RRIRVRPPRLPRPRPRPPQKPRP | 0.23
RRIRVRPPRLPRPRPRPPQRPRP | 0.374
RRIRVRPPRLPRPRPRPPQYPRP | -0.19
RRIRVRPPRLPRPRPRPPRCPRP | 0.324
RRIRVRPPRLPRPRPRPPREPRP | 0.267
RRIRVRPPRLPRPRPRPPSFPRP | 0.0364
RRIRVRPPRLPRPRPRPPTTPRP | 0.47
RRIRVRPPRLPRPRPRPPVSPRP | 0.847
RRIRVRPPRLPRPRPRPPVTPRP | -0.0902
RRIRVRPPRLPRPRPRPPWIPRP | 0.218
RRIRVRPPRLPRPRPRPPYIPRP | -0.28
RRIRVRPPRLPRPRPRPQAQPRP | 0.173
RRIRVRPPRLPRPRPRPQAVPRP | -0.0188
RRIRVRPPRLPRPRPRPQDYPRP | -0.125
RRIRVRPPRLPRPRPRPQECPRP | -0.00813
RRIRVRPPRLPRPRPRPQFGPRP | -0.018
RRIRVRPPRLPRPRPRPQGLPRP | -0.29

Sequence | shrunken log2 fold change
RRIRVRPPRLPRPRPRPQGRPRP | -0.0469
RRIRVRPPRLPRPRPRPQHAPRP | -0.154
RRIRVRPPRLPRPRPRPQMSPRP | -0.233
RRIRVRPPRLPRPRPRPQNLPRP | -0.672
RRIRVRPPRLPRPRPRPQPAPRP | 0.0494
RRIRVRPPRLPRPRPRPQPFPRP | -0.0258
RRIRVRPPRLPRPRPRPQQDPRP | 0.151
RRIRVRPPRLPRPRPRPQRGPRP | 0.198
RRIRVRPPRLPRPRPRPQRYPRP | -0.883
RRIRVRPPRLPRPRPRPQSYPRP | -0.461
RRIRVRPPRLPRPRPRPQTDPRP | -0.27
RRIRVRPPRLPRPRPRPQTGPRP | -0.0393
RRIRVRPPRLPRPRPRPQVAPRP | -0.136
RRIRVRPPRLPRPRPRPQWGPRP | -0.149
RRIRVRPPRLPRPRPRPQWMPRP | -0.105
RRIRVRPPRLPRPRPRPQYQPRP | -0.302
RRIRVRPPRLPRPRPRPRDHPRP | 0.172
RRIRVRPPRLPRPRPRPRDKPRP | -0.179
RRIRVRPPRLPRPRPRPRETPRP | 0.513
RRIRVRPPRLPRPRPRPRGNPRP | 0.378
RRIRVRPPRLPRPRPRPRHGPRP | 0.176
RRIRVRPPRLPRPRPRPRHRPRP | 0.0675
RRIRVRPPRLPRPRPRPRIMPRP | -0.601
RRIRVRPPRLPRPRPRPRKNPRP | 0.0784
RRIRVRPPRLPRPRPRPRMAPRP | 0.199

Sequence | shrunken log2 fold change
RRIRVRPPRLPRPRPRPRMGPRP | 1.86
RRIRVRPPRLPRPRPRPRMMPRP | 0.0121
RRIRVRPPRLPRPRPRPRNEPRP | 0.115
RRIRVRPPRLPRPRPRPRNKPRP | -0.136
RRIRVRPPRLPRPRPRPRPCPRP | 0.322
RRIRVRPPRLPRPRPRPRPPPRP | 0.843
RRIRVRPPRLPRPRPRPRPYPRP | 0.179
RRIRVRPPRLPRPRPRPRQAPRP | 0.224
RRIRVRPPRLPRPRPRPRQDPRP | 0.582
RRIRVRPPRLPRPRPRPRQGPRP | 0.317
RRIRVRPPRLPRPRPRPRRHPRP | 0.252
RRIRVRPPRLPRPRPRPRSYPRP | -0.0987
RRIRVRPPRLPRPRPRPRTDPRP | -0.191
RRIRVRPPRLPRPRPRPRVGPRP | 0.655
RRIRVRPPRLPRPRPRPRVLPRP | 0.0884
RRIRVRPPRLPRPRPRPRWAPRP | 0.343
RRIRVRPPRLPRPRPRPRWFPRP | -0.0978
RRIRVRPPRLPRPRPRPRYGPRP | -0.392
RRIRVRPPRLPRPRPRPRYSPRP | -0.911
RRIRVRPPRLPRPRPRPRYVPRP | -0.218
RRIRVRPPRLPRPRPRPSAGPRP | 0.295
RRIRVRPPRLPRPRPRPSCCPRP | -0.133
RRIRVRPPRLPRPRPRPSCVPRP | -0.583
RRIRVRPPRLPRPRPRPSDCPRP | 0.234
RRIRVRPPRLPRPRPRPSDGPRP | 0.000198
